This note sets out measurements from patent US7067277B1, “Chimeric G proteins and uses thereof” (H. Lundbeck A/S, priority 1999, dated 2006).

Holding throughout (type): cell-based
One experiment addresses T1, Rat Y1 (Rattus norvegicus, UniProt P21555).
T1 construct: linearized plasmids or PCR products containing the complete coding region of the genes; expressed in transfected cells; host or cells: Xenopus laevis oocytes (receptor cRNA injected)
T1 sequence (P21555 1-382): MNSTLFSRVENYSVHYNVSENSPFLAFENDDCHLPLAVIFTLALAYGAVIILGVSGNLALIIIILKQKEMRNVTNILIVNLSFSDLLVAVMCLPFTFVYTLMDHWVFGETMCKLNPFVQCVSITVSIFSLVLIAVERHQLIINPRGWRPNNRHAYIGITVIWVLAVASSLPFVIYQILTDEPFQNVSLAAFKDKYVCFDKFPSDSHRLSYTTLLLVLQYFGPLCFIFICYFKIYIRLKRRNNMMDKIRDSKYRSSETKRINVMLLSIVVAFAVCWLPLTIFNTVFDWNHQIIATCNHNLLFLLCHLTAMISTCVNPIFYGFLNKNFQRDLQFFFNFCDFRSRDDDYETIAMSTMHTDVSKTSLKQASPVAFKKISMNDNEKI
The experiment can be described thus: Cl- current recording in Xenopus oocytes expressing GPCR and chimeric G protein. Particulars: Xenopus oocytes expressing Rat Y1 and chimera; mean ± s.e.m. As for the experimental part: (§1) Oocytes were harvested from Xenopus laevis and injected with mRNA transcripts as previously described (Quick and Lester, 1994; Smith et al., 1997). Receptor and chimeric G protein α subunit RNA transcripts were synthesized using the T7 polymerase (“Message Machine,” Ambion) from linearized plasmids or PCR products containing the complete coding region of the genes. Oocytes were injected with 5–25 ng synthetic receptor RNA and incubated for 3–8 days at 17 degrees. Three to eight hours prior to recording, oocytes were injected with 500 pg chimeric Gα subunit mRNA. Dual electrode voltage clamp (Axon Instruments Inc.) was performed using 3 M KCl-filled glass microelectrodes having resistances of 1–2 MOhm. Unless otherwise specified, oocytes were voltage clamped at a holding potential of −80 mV. During recordings, oocytes were bathed in continuously flowing (1–3 ml/min) medium containing 96 mM NaCl, 2 mM KCl, 1.8 mM CaCl2, 1 mM MgCl2, and 5 mM HEPES, pH 7.5 (ND96). Drugs were applied by local perfusion from a 10 μl glass capillary tube fixed at a distance of 0.5 mm from the oocyte. Experiments were carried out at room temperature. All values are expressed as mean±standard error of the mean.

Another experiment deals with T2, Rabbit 5HT1D (Oryctolagus cuniculus, UniProt P49145).
T2 construct: linearized plasmids or PCR products containing the complete coding region of the genes; expressed in transfected cells; host or cells: Xenopus laevis oocytes (receptor cRNA injected)
T2 sequence (P49145 whole entry): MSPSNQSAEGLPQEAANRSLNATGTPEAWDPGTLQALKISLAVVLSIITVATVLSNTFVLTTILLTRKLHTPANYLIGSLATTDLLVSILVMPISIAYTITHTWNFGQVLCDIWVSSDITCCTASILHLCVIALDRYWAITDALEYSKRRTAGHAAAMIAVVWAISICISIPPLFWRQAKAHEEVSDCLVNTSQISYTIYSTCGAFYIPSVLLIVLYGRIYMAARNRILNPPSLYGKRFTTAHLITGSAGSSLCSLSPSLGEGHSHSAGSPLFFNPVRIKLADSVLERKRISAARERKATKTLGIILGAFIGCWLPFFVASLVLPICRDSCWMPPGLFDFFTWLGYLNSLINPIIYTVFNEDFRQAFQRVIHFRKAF
Described as above. To be noted: Xenopus oocytes expressing Rabbit 5HT1D and chimera; mean ± s.e.m. The method, then: as §1

A further experiment has as its target T3, Human NPFF1 (Homo sapiens, UniProt Q9GZQ6).
T3 construct: linearized plasmids or PCR products containing the complete coding region of the genes; expressed in transfected cells; host or cells: Xenopus laevis oocytes (receptor cRNA injected)
Described as above. To be noted: Xenopus oocytes expressing Human NPFF1 and chimera, 1 μM NPFF, mean ± s.e.m. As for the experimental part:
as §1

The next experiment deals with T4, h D1 (Homo sapiens, UniProt P21728).
T4 construct: expressed in transfected cells; host or cells: COS-7
T4 sequence (P21728 whole entry): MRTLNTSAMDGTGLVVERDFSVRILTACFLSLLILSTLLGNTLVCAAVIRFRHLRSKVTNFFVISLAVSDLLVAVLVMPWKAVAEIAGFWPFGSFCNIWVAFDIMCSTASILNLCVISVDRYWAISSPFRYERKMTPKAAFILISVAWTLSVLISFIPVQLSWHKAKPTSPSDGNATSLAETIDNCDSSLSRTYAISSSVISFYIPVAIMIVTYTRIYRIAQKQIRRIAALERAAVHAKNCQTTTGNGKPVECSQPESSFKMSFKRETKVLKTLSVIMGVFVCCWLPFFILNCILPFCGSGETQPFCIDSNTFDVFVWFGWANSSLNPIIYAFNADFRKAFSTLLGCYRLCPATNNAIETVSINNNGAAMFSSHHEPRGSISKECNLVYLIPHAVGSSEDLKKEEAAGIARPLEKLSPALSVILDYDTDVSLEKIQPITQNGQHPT
The experiment can be described thus: Calcium mobilization (FLIPR, Fluo-3) in transfected COS-7 cells. The method, then: COS-7 cells were cultured in 225 cm^2 flasks in Dulbecco's Modified Eagle Medium (DMEM) with supplements (10% bovine calf serum, 4 mM glutamine, 100 units/ml penicillin and 100 μg/ml streptomycin) at 37° C., 5% CO2. Stock plates of COS-7 cells were trypsinized and split 1:6 every 3–4 days.
For evaluating the function of a single chimeric G protein, the standard cDNA transfection ratio was 1:1 (10 μg GPCR cDNA and 10 μg chimeric G protein cDNA). For evaluating the function of a mixture of chimeric G proteins, the standard cDNA transfection ratio was 8:1:1 (16 μg GPCR cDNA, 2 μg Gαq/z cDNA, 2 μg Gαq/s cDNA).
Twenty four hours after transient transfection, COS-7 cells were seeded into 96-well black wall microtiter plates coated with poly-D-lysine for assay the following day. […] After excess dye was discarded, cells were washed in assay buffer and layered with a final volume equal to 100 μl/well. Basal fluorescence was monitored in a fluorometric imaging plate reader (FLIPR™, Molecular Devices) with an excitation wavelength of 488 nm and an emission range of 500 to 560 nm. Laser excitation energy was adjusted so that basal fluorescence readings were approximately 10,000 relative fluorescent units. Cells were stimulated with agonists diluted in assay buffer (50 μl), and relative fluorescent units were measured at defined intervals (exposure=0.4 sec) over a 3 min period at room temperature. Maximum change in fluorescence was calculated for each well. Concentration-response curves derived from the maximum change in fluorescence were analyzed by nonlinear regression (Hill equation).
On the technique in general: Calcium assays in cells follow changes in intracellular calcium, usually with a dye or a luminescent sensor.

T3 sequence (Q9GZQ6 whole entry): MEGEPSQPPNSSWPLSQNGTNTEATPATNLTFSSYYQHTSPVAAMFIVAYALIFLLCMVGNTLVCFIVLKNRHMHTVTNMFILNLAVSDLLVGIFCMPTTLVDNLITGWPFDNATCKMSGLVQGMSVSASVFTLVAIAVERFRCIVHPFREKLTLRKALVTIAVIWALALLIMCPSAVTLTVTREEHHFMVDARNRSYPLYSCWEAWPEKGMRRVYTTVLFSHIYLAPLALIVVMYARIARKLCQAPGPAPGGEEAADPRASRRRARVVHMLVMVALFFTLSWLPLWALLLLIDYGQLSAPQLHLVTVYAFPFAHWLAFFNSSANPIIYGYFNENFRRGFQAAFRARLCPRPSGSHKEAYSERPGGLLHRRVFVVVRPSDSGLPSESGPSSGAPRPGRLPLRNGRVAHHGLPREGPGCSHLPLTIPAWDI

B1: cGαq/z5: chimeric Gα subunit: C-terminal final 5 amino acids of C. elegans Gαq replaced with those of hGαz (SEQ ID NO: 1) (protein)
chain: MACCLSEEAREQKRINQEIEKQLQRDKRNARRELKLLLLGTGESGKSTFIKQMRIIHGQGYSEEDKRAHIRLVYQNVFMAIQSMIRAMDTLDIKFGNESEELQEKAAVVREVDFESVTSFEEPYVSYIKELWEDSGIQECYDRRREYQLTDSAKYYLSDLRRLAVPDYLPTEQDILRVRVPTTGIIEYPFDLEQIIFRMVDVGGQRSERRKWIHCFENVTSIMFLVALSEYDQVLVECDNENRMEESKALFRTIITYPWFTNSSVILFLNKKDLLEEKILYSHLADYFPEYDGPPRDPIAAREFILKMFVDLNPDADKIIYSHFTCATDTENIRFVFAAVKDTILQHNLKYIGLC
modifications: C. elegans
For B1, the “Response amplitudes (nA) in oocytes” value with Rat Y1 is reported as 1549 ± 168 nA; in the experiment with Rabbit 5HT1D, 150 ± 105 nA; with Human NPFF1, 1258±159 nA; with Human NPFF1 (listed as CGαq/z5) it was 1258 ± 159 nA. Besides, the maximal signal in the experiment with h D1 (human D1 receptor in COS-7, dopamine 0.3 nM to 100 μM concentration-response curve, example shown, FIG. 4B) is on record as 14,723 fluorescence units. Also, the “MAXIMAL SIGNAL (FLUORESCENCE UNITS)” value with h D1 (human D1 receptors in COS-7, 10 μg chimera cDNA and 10 μg receptor cDNA, 100 μM dopamine, Table 9 parallel comparison, mean of two experiments) came out at 4832 fluorescence units.

B2: cGαq/z9: C. elegans Gαq with Gαz portion of the C-terminal tail extended to 9 amino acids (SEQ ID NO: 2) (protein)
chain: MACCLSEEAREQKRINQEIEKQLQRDKRNARRELKLLLLGTGESGKSTFIKQMRIIHGQGYSEEDKRAHIRLVYQNVFMAIQSMIRAMDTLDIKFGNESEELQEKAAVVREVDFESVTSFEEPYVSYIKELWEDSGIQECYDRRREYQLTDSAKYYLSDLRRLAVPDYLPTEQDILRVRVPTTGIIEYPFDLEQIIFRMVDVGGQRSERRKWIHCFENVTSIMFLVALSEYDQVLVECDNENRMEESKALFRTIITYPWFTNSSVILFLNKKDLLEEKILYSHLADYFPEYDGPPRDPIAAREFILKMFVDLNPDADKIIYSHFTCATDTENIRFVFAAVKDTILQNNLKYIGLC
modifications: C. elegans
In the case of B2, the “Response amplitudes (nA) in oocytes” value in the experiment with Rat Y1 came out at 300 ± 177 nA; with Rabbit 5HT1D, 34 ± 12 nA; with Human NPFF1, 1449 ± 398 nA. For the same molecule, the “MAXIMAL SIGNAL (FLUORESCENCE UNITS)” value with h D1 (h D1 + chimera in COS-7, agonist DA, max 100 μM) was determined as 13099 fluorescence units.
